According to patent US9089565B2, “Compositions and methods for causing neurite outgrowth” (MEDICAL RESEARCH COUNCIL, priority 2009, dated 2015):

Molecular target: T1, NgR1 (Homo sapiens, UniProt Q9BZR6, S281A)
T1 construct: The cDNAs of NgR1 (NM 023004, Nt. 184-1543); expressed in transfected cells; host or cells: COS7
T1 sequence (Q9BZR6 27-447 S281A): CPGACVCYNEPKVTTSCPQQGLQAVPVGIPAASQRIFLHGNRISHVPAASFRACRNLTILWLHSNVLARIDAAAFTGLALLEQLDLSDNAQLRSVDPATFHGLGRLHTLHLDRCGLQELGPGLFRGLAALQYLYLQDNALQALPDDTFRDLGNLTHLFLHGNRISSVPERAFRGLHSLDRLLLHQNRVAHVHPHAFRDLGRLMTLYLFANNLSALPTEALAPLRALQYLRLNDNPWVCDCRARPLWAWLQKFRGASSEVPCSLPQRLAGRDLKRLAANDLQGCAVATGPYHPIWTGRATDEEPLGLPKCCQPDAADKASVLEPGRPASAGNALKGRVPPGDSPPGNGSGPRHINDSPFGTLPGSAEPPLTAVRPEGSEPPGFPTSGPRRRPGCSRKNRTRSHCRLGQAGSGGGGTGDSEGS
Experiment: Binding of Nogo-66 fragment (Nogo-GFP) to COS7 cells over-expressing NgR1
Details: 281S/A mutant NgR1; pre-treatment 30 min (CK2 with ATP, or NEP1-40)
Protocol: FIG. 3. CK2 phosphorylates NgR1, and inhibits binding of the myelin-associated proteins to NgR1. (A) Myc-tagged wild type, 281S/A or 281S/D mutant NgR1 were over-expressed in COS7 cells. The over-expressed cells were incubated with either the combination of ATP and CK2, or NEP1-40 for 30 min at 37° C. After washing with PBS, cells were incubated with Hisx6-tagged Nogo-GFP for 3 hours at 4° C. The cells were fixed and immunofluorescence was performed with anti-Myc and anti-GFP antibodies. (B) COS7 cells over-expressing Myc-tagged wild type NgR1 were treated as described in (A). Proteins were extracted and the Myc-tagged NgR1 was immunoprecipitated with anti-Myc antibody. Co-precipitated Hisx6-tagged Nogo-GFP was detected by anti-GFP antibody. (C) Cell surface proteins in NgR1-overexpressing COS7 cells were labelled with biotin. The biotinylated proteins were fractionated and analysed by SDS-PAGE. Biotinylated NgR1-Myc was detected with anti-Myc. antibody. (D) COS7 cells over-expressing either wild type NgR1-Myc or 281S/A mutant NgR1-Myc were incubated with ã-^32P-ATP in the presence or absence of CK2. Myc-tagged proteins were immunoprecipitated and analysed with SDS-PAGE. Proteins were blotted onto a PVDF membrane and the membrane was exposed to X-ray film to detect incorporated ^32P. After autoradiography, the membrane was used for immunoblotting with anti-Myc antibody. (E and F) COS7 cells over-expressing Myc-tagged wild type, 281S/A or 281S/D mutant NgR1, were treated as described in (A). After washing with PBS, cells were incubated with either His-tagged OMgp (E) or HA-tagged MAG (F) for 3 hours at 4° C. […]
After treatment with or without CK2, COS7 cells over-expressing wild type or mutant NgR were incubated with Hisx6 tagged Nogo-GFP (10 μg/ml), HA-MAG (50 μg/ml) or Hisx6 tagged OMgp (10 μg/ml) in PBS for 3 hours at 4° C. […] Biotinylated proteins were precipitated with streptavidin beads and were analysed by SDS-PAGE. Each sample fractionated from 5×10^6 cells was analysed by SDS-PAGE. […]

binding of the Nogo-66 fragment, immunofluorescence: inhibited binding
Substance: NEP1-40: a competitive inhibitor of Nogo-66 binding to NgR1 (MEDLDQSPLVSSSDSPPRPQPAFKYQFVREPEDEEEEEEE; Nogo-66 residues 1-40; UniProt Q9NQC3 1-40, looked up, fragment) [reference compound]
